Results on three substances are retold here after publication doi:10.1101/2021.11.04.467292.

For assay [1], the target named is microtubules polymerised from bovine tubulin, paclitaxel-stabilised (bovine) (UniProt Q6B856). In words: TIRF microscopy of Qdot-bound motor on immobilised microtubules.
For assay [2] the target is unchanged. In words: two-MT assay.
The target of assay [3] is KLIF motor domain lacking the N-terminal extension fused to GFP (Trypanosoma brucei). Nature of the assay: gliding filament motility assay.

As for “KLIF motor domain construct (amino acids 1-672) fused to a C-terminal biotin tag (domain or fragment)”, the half-life of association with MTs in assay [1] was > 5 min.

For the substance “KLIF motor domain construct (amino acids 1-672) fused to a C-terminal GFP (mClover3) tag (domain or fragment)”, in assay [2], the half-life of plus end to plus end tethering of two MTs by KLIF stood at 1.7 min.

Turning to “microtubules polymerised from bovine tubulin, paclitaxel-stabilised (from UniProt Q6B856 1-445) (complex)”, the percent of filaments dissociated within 2.5 minutes in assay [3] is > 50%.
